Results reported in paper PMC5865211, “The orphan GPR50 receptor promotes constitutive TGFβ receptor signaling and protects against cancer development” (Nature Communications, 2018).

B1: TβRI-Renilla luciferase 8 (Rluc8) fusion protein (receptor, UniProt P36897 34-503, looked up)
chain: LQCFCHLCTKDNFTCVTDGLCFVSVTETTDKVIHNSMCIAEIDLIPRDRPFVCAPSSKTGSVTTTYCCNQDHCNKIELPTTVKSSPGLGPVELAAVIAGPVCFVCISLMLMVYICHNRTVIHHRVPNEEDPSLDRPFISEGTTLKDLIYDMTTSGSGSGLPLLVQRTIARTIVLQESIGKGRFGEVWRGKWRGEEVAVKIFSSREERSWFREAEIYQTVMLRHENILGFIAADNKDNGTWTQLWLVSDYHEHGSLFDYLNRYTVTVEGMIKLALSTASGLAHLHMEIVGTQGKPAIAHRDLKSKNILVKKNGTCCIADLGLAVRHDSATDTIDIAPNHRVGTKRYMAPEVLDDSINMKHFESFKRADIYAMGLVFWEIARRCSIGGIHEDYQLPYYDLVPSDPSVEEMRKVVCEQKLRPNIPNRWQSCEALRVMAKIMRECWYANGAARLTALRIKKTLSQLSQQEGIKM
notes: TGFβ receptor type I; In the homomer BRET row the second copy of TβRI carried YFP (TβRI-YFP) instead of Rluc8; also called TβRI-Rluc8; source: HEK293T, transfected, in intact cells
B2: TβRII-YFP (receptor, UniProt P37173 23-567, looked up)
chain: TIPPHVQKSVNNDMIVTDNNGAVKFPQLCKFCDVRFSTCDNQKSCMSNCSITSICEKPQEVCVAVWRKNDENITLETVCHDPKLPYHDFILEDAASPKCIMKEKKKPGETFFMCSCSSDECNDNIIFSEEYNTSNPDLLLVIFQVTGISLLPPLGVAISVIIIFYCYRVNRQQKLSSTWETGKTRKLMEFSEHCAIILEDDRSDISSTCANNINHNTELLPIELDTLVGKGRFAEVYKAKLKQNTSEQFETVAVKIFPYEEYASWKTEKDIFSDINLKHENILQFLTAEERKTELGKQYWLITAFHAKGNLQEYLTRHVISWEDLRKLGSSLARGIAHLHSDHTPCGRPKMPIVHRDLKSSNILVKNDLTCCLCDFGLSLRLDPTLSVDDLANSGQVGTARYMAPEVLESRMNLENVESFKQTDVYSMALVLWEMTSRCNAVGEVKDYEPPFGSKVREHPCVESMKDNVLRDRGRPEIPSFWLNHQGIQMVCETLTECWDHDPEARLTAQCVAERFSELEHLDRLSGRSCSEEKIPEDGSLNTTK
notes: TGFβ receptor type II; also called TβRII-yellow fluorescent protein fusion; source: HEK293T, transfected, in intact cells
B3: GPR50Δ4-YFP (receptor, human, UniProt Q13585 1-617, looked up)
chain: MGPTLAVPTPYGCIGCKLPQPEYPPALIIFMFCAMVITIVVDLIGNSMVILAVTKNKKLRNSGNIFVVSLSVADMLVAIYPYPLMLHAMSIGGWDLSQLQCQMVGFITGLSVVGSIFNIVAIAINRYCYICHSLQYERIFSVRNTCIYLVITWIMTVLAVLPNMYIGTIEYDPRTYTCIFNYLNNPVFTVTIVCIHFVLPLLIVGFCYVRIWTKVLAARDPAGQNPDNQLAEVRNFLTMFVIFLLFAVCWCPINVLTVLVAVSPKEMAGKIPNWLYLAAYFIAYFNSCLNAVIYGLLNENFRREYWTIFHAMRHPIIFFSGLISDIREMQEARTLARARAHARDQAREQDRAHACPAVEETPMNVRNVPLPGDAAAGHPDRASGHPKPHSRSSSAYRKSASTHHKSVFSHSKAASGHLKPVSGHSKPASGHPKSATVYPKPASVHFKADSVHFKGDSVHFKPDSVHFKPASSNPKPITGHHVSAGSHSKSAFSAATSHPKPIKPATSHAEPTTADYPKPATTSHPKPTAADNPELSASHCPEIPAIAHPVSDDSDLPESASSPAAGPTKPAASQLESDTIADLPDPTVVTTSTNDYHDVVVIDVEDDPDEMAV
notes: also called GPR50-YFP; source: HEK293T, transfected, in intact cells

Legend:
[1] = molecular target: the molecule itself; assay: FRET or BRET; BRET donor saturation in intact HEK293T cells; fixed amount of TβRI-Rluc8, increasing amounts of YFP fusion; no TGFβ
[2] = molecular target: B1; assay: as above; details: partners not purified

Row | Binder | BRET50 [1] | BRET50 [2]
1 | B1 | 1.34 ± 0.185 | –
2 | B2 | – | 0.046 ± 0.008
3 | B3 | – | 0.031 ± 0.01
